Results published in article PMC12481158.

Biological target: CHLOROPLAST UNUSUAL POSITIONING 1 with C-terminal GFP (CHUP1:GFP) (N. benthamiana)
Assay: FRET or BRET; nonfitting FLIM-FRET (average-arrival-time FRET) in planta; CHUP1:GFP donor, KAC1:RFP acceptor; mean weighted photon arrival time on chloroplasts juxtaposed to the PM

decrease in donor lifetime against CHUP1:GFP alone: 143 ps
donor (CHUP1:GFP) fluorescence lifetime with KAC1:RFP: 2.27 ns
Substance: KINESIN-LIKE PROTEIN FOR ACTIN-BASED CHLOROPLAST MOVEMENT 1 with C-terminal RFP (KAC1:RFP) (natural protein)
